Target: CD3 on Jurkat cells (Jurkat靶标细胞) (UniProt P07766)
Experiment: flow cytometry, culture supernatant on Jurkat cells

Chain of UniProt P07766 (P07766 23-207): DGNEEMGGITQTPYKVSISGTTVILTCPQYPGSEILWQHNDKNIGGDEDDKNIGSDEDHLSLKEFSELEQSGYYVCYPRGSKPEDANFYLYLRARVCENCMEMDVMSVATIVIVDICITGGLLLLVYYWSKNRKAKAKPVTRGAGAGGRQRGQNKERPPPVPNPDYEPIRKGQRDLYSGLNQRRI

结合MFI: 521 MFI
B1: A30322 抗CD3单域抗体 (sdAb) (VHH, not shown: large carriers)
VHH: EVQLVECGGGLVQAGGSLRLSCAASGRTFDTMGWFRQAPGKEREFVAAVRWSSGNTYYGNTVKGRFTISRDTATNTVYLEMNSLKHEDTAVYYCAARLAGRGAADHWGQGTQVTVSS

— patent CN106117361A
